Test results published in patent US20080261267A1, “Cellulases from Rumen” (priority 2004, published 2008).

Assay: Thermal activity and thermostability
Type: biochemical
Settings: at the pH optima; CMC
Procedure: FIG. 3 represents Table 3 giving an overview over the biochemical properties of the cellulases according to the invention. Reaction was performed at the optimum pH and temperature for each done using CMC as substrate. […] The values for clones pBKRR.1, 9, 11, 13, 14, 16 and 22 are depicted. For each clone the following data are given: • maximum pH at which the remaining activity after 24 h incubation at the indicate pH is >90% (column “Stable at pH”). […] Activity was measured after 2 h incubation and compared with a control reaction in buffer lacking dimethylsulfoxide, • detergent resistance given by the remaining activity in the corresponding buffer (optimum pH) containing the indicate detergent at a concentration for 0 to 3%. […]
FIG. 4 a-c represent the results of the determination of pH and temperature optima showing graphically views of the pH-dependence activity and temperature-dependence activity of the polypeptides according to the invention. The pH optima of rumial endoglucanases were measured under conditions described in Example 5: 4% CMC, 0.5 mL of 50 mM buffer at the corresponding pH and 0.1 mg E. coli cell lysates, for 5-30 min, at 40° C. Effect of temperature on endoglucanase activity was measured in 50 mM sodium acetate buffer pH 5.6. […]

B1: pBKRR.14: rumen endoglucanase, sequences FIG. 16/24; also capable of hydrolyzing xylan (protein)
chain: MINVLQHHPEVELSVDKTSVSFNRSGGEETFTVTSSTQPHVSADVSWVVVETGKIDKDHHTEVRVLAGANRKEASAGTLTVSCSDKKVSVSVKQEAFVAPSVASTTAVTPQMVFDAMGPGWNMGNHMDAISNGVSGETVWGNPKCTQATMDGVKAAGYKAVRICTTWEGHIGAAPAYALEQKWLDRVAEIVGYAEKAGLVAIVNTHHDESYWQDISKCYNNAANHEKVKDEVFSVWTQIAEKFKDKGEWLVFESFNEIQDGGWGWSDAFRKNPDAQYKVLNEWNQTFVDAVRSTGGQNATRWLGIPGYACNPGFTIAGLVLPKDYTTANRLMVAVHDYDPYDYTLKDPLIRQWGHTADADKRPSGDNEKAVVDVFNNLKAAYLDKGIPVYLGEMGCSRHTAADFPYQKYYMEYFCKAAADRLLPMYLWDNGAKGVGSERHAYIDHGTGQFVDEDARTLVGLMVKAVTTKDASYTLESVYNSAP
modifications: Description of sequence sequence derived from genomic DNA library from rumen ecosystem, particularly amino acid sequence of clones pBKRR 14 and 20-1; RR14=RR20-1;(see Figure 24)
notes: also capable of hydrolyzing xylan
- temperature of improved activity and thermostability: 70 °C
